{"source": "patent US6033847", "about": "“InK4c-p18 and InK4d-p19, inhibitors of cyclin-dependent kinases CDK4 and CDK6, and uses thereof” (St. Jude Children's Research Hospital, dated 2000)", "binders": {"B1": {"name": "GST-p18 fusion protein (glutathione S-transferase fused to mouse InK4c-p18) (other)", "chain": "MAEPWGNELASAAARGDLEQLTSLLQNNVNVNAQNGFGRTALQVMKLGNPEIARRLLLRGANPNLKDGTGFAVIHDAARAGFLDTVQALLEFQADVNIEDNEGNLPLHLAAKEGHLPVVEFLMKHTACNVGHRNHKGDTAFDLARFYGRNEVISLMEANGVGGATSLQ"}, "B2": {"name": "GST-p19 fusion protein (glutathione S-transferase fused to mouse InK4d-p19) (other)", "chain": "MLLEEVCVGDRLSGARARGDVQEVRRLLHRELVHPDALNRFGKTALQVMMFGSPAVALELLKQGASPNVQDASGTSPVHDAARTGFLDTLKVLVEHGADVNALDSTGSLPIHLAIREGHSSVVSFLAPESDLHHRDASGLTPLELARQRGAQNLMDILQGHMMIPM"}, "B3": {"name": "mouse InK4d-p19 (other)", "chain": "B2 chain"}}, "key": {"cyclin D3": {"biological_target": "T1, cyclin D3 (Mus musculus (Mouse), UniProt P30282)", "T1 sequence": "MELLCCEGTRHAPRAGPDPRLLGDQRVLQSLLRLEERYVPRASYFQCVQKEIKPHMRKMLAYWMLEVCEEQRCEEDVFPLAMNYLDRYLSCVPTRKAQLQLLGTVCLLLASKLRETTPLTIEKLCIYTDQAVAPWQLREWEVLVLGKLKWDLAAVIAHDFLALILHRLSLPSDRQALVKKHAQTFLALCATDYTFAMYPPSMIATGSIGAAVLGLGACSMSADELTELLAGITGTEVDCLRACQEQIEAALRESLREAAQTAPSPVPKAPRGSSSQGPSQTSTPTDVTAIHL", "assay": "GST pull-down of radiolabelled cyclins D2 and D3", "experimental": "(§1) Panel A is an autoradiograph of aliquots of the ^35S-methionine-labeled products, derived from the in vitro transcription and translation of plasmids containing CDNA coding sequences of the cdc or cdk gene indicated in the legend below lanes 1–6, separated by electrophoresis on denaturing polyacrylamide gels. Equal aliquots of the \"input\" samples shown in lanes 1–6 were incubated with control beads (lanes 7–12) (i.e., GST-Sepharose; GST=glutathione S-transferase) or with beads containing a GST-p19 fusion protein (lanes 13–18), after which the beads were washed, and adsorbed radiolabeled products were separated on gels and autoradiographed. In Panel B, the experiments were performed as in panel A, except that radiolabeled cyclins D2 and D3 were substituted for cdk gene products; the cdk4 gene product was used as a positive control. All autoradiographic exposure times were 15 hrs.\n(§2) Plasmids derived from pBluescript and containing the entire coding sequences of the mouse cdk2, cdk4, cdk5, or cdk6 genes (Matsuoka et al., Mol. Cell. Biol. 14:7265–7275 (1994); Matsushime et al., Cell 71:323–334 (1992)) or human cdc2/cdk1 or cdk3 genes (provided by Drs. Matthew Meyer-son and Edward Harlow (MGH Cancer Center, Cambridge, Mass.)) were transcribed and translated in vitro (Matsuoka et al., Mol. Cell. Biol. 14:7265–7275 (1994)). Mouse cdk6 cDNA was cloned from a mouse macrophage library (Stratagene, La Jolla, Calif.) by screening with a full-length human cdk6 clone (also provided by M. Meyerson and E. Harlow). Following transcription and translation, rabbit reticulocyte lysates containing ^35S-methionine labeled CDKs (20–40 ul) were diluted to 0.5 ml in IP kinase buffer (50 mM Hepes, pH 7.5, containing 150 mM NaCl, 1 mM EDTA, 1 mM DTT, 0.1% Tween-20) containing 10 mg/ml BSA and mixed with 1 ug of purified GST or GST-p19 immobilized on glutathione-Sepharose beads. After 2 hours of incubation at 4° C., beads were collected by centrifugation, washed 4 times in IP kinase buffer, and the bound proteins were denatured and analyzed by electrophoresis on 12.5% polyacrylamide gels containing SDS (Anderson, S. J., et al., J. Virol. 51:730–741 (1984))."}, "cyclin D2": {"biological_target": "cyclin D2 (Mus musculus (Mouse), UniProt P30280)", "assay": "GST pull-down of radiolabelled cyclins D2 and D3", "experimental": "as §1, §2"}, "mouse CDK2": {"biological_target": "mouse CDK2 (mouse, UniProt P97377-2)", "assay": "GST pull-down of 35S-labelled in vitro translated CDKs", "experimental": "(§3) Equal aliquots of the \"input\" samples shown in lanes 1–6 were incubated with control beads (lanes 7–12) (i.e., GST-Sepharose; GST=glutathione S-transferase) or with beads containing a GST-p19 fusion protein (lanes 13–18), after which the beads were washed, and adsorbed radiolabeled products were separated on gels and autoradiographed. In Panel B, the experiments were performed as in panel A, except that radiolabeled cyclins D2 and D3 were substituted for cdk gene products; the cdk4 gene product was used as a positive control. All autoradiographic exposure times were 15 hrs.\n(§4) Human InK4 polypeptides specifically bind to the cyclin D-dependent catalytic subunits, CDK4 and CDK6 (5,18,45). To study the interactions of mouse p19 and p18 with CDKs, cDNAs encoding CDC2 (CDK1) and CDKs 2–6 were transcribed and translated in vitro, and the radiolabeled products were mixed with GST-tagged p19 and p18 fusion proteins adsorbed to glutathione-Sepharose beads or to GST-Sepharose beads as a control.\nas §2"}, "human CDC2 (CDK1)": {"biological_target": "human CDC2 (CDK1) (human, UniProt P06493)", "assay": "GST pull-down of 35S-labelled in vitro translated CDKs", "experimental": "as §3, §4, §2"}, "mouse CDK5": {"biological_target": "mouse CDK5 (mouse, UniProt P49615)", "assay": "GST pull-down of 35S-labelled in vitro translated CDKs", "experimental": "as §3, §4, §2"}, "[1]": {"biological_target": "cyclin D1 (endogenous, murine BAC1.2F5 macrophages) (mouse, UniProt P25322)", "assay": "co-immunoprecipitation from lysates of proliferating mouse cells with antiserum to the p19 C-terminus"}}}
{"binder": "B1", "values": [{"measurement": "binding result", "setting": "cyclin D3", "value": "no binding"}, {"measurement": "binding result", "setting": "cyclin D2", "value": "no binding"}, {"measurement": "binding result", "setting": "mouse CDK2", "value": "no binding"}, {"measurement": "binding result", "setting": "human CDC2 (CDK1)", "value": "no binding"}, {"measurement": "binding result", "setting": "mouse CDK5", "value": "no binding"}]}
{"binder": "B2", "values": [{"measurement": "binding result", "setting": "cyclin D3", "value": "no binding"}, {"measurement": "binding result", "setting": "cyclin D2", "value": "no binding"}, {"measurement": "binding result", "setting": "mouse CDK2", "value": "no binding (tested: 1 ug on beads)"}, {"measurement": "binding result", "setting": "human CDC2 (CDK1)", "value": "no binding (tested: 1 ug on beads)"}, {"measurement": "binding result", "setting": "mouse CDK5", "value": "no binding (tested: 1 ug on beads)"}]}
{"binder": "B3", "values": [{"measurement": "binding result", "setting": "[1]", "value": "no binding"}]}
